B1: ATP-dependent DNA helicase II subunit 2 (Saccharomyces cerevisiae), Q04437 (parent)
chain: MSSESTTFIVDVSPSMMKNNNVSKSMAYLEYTLLNKSKKSRKTDWISCYLANCPVSENSQEIPNVFQIQSFLAPVTTTATIGFIKRLKQYCDQHSHDSSNEGLQSMIQCLLVVSLDIKQQFQARKILKQIVVFTDNLDDLDITDEEIDLLTEELSTRIILIDCGKDTQEERKKSNWLKLVEAIPNSRIYNMNELLVEITSPATSVVKPVRVFSGELRLGADILSTQTSNPSGSMQDENCLCIKVEAFPATKAVSGLNRKTAVEVEDSQKKERYVGVKSIIEYEIHNEGNKKNVSEDDQSGSSYIPVTISKDSVTKAYRYGADYVVLPSVLVDQTVYESFPGLDLRGFLNREALPRYFLTSESSFITADTRLGCQSDLMAFSALVDVMLENRKIAVARYVSKKDSEVNMCALCPVLIEHSNINSEKKFVKSLTLCRLPFAEDERVTDFPKLLDRTTTSGVPLKKETDGHQIDELMEQFVDSMDTDELPEIPLGNYYQPIGEVTTDTTLPLPSLNKDQEENKKDPLRIPTVFVYRQQQVLLEWIHQLMINDSREFEIPELPDSLKNKISPYTHKKFDSTKLVEVLGIKKVDKLKLDSELKTELEREKIPDLETLLKRGEQHSRGSPNNSNN

Variants of: B1
Settings: with sir4_yeast SIR4, P11978
Sequence of sir4_yeast SIR4, P11978 (P11978 whole entry): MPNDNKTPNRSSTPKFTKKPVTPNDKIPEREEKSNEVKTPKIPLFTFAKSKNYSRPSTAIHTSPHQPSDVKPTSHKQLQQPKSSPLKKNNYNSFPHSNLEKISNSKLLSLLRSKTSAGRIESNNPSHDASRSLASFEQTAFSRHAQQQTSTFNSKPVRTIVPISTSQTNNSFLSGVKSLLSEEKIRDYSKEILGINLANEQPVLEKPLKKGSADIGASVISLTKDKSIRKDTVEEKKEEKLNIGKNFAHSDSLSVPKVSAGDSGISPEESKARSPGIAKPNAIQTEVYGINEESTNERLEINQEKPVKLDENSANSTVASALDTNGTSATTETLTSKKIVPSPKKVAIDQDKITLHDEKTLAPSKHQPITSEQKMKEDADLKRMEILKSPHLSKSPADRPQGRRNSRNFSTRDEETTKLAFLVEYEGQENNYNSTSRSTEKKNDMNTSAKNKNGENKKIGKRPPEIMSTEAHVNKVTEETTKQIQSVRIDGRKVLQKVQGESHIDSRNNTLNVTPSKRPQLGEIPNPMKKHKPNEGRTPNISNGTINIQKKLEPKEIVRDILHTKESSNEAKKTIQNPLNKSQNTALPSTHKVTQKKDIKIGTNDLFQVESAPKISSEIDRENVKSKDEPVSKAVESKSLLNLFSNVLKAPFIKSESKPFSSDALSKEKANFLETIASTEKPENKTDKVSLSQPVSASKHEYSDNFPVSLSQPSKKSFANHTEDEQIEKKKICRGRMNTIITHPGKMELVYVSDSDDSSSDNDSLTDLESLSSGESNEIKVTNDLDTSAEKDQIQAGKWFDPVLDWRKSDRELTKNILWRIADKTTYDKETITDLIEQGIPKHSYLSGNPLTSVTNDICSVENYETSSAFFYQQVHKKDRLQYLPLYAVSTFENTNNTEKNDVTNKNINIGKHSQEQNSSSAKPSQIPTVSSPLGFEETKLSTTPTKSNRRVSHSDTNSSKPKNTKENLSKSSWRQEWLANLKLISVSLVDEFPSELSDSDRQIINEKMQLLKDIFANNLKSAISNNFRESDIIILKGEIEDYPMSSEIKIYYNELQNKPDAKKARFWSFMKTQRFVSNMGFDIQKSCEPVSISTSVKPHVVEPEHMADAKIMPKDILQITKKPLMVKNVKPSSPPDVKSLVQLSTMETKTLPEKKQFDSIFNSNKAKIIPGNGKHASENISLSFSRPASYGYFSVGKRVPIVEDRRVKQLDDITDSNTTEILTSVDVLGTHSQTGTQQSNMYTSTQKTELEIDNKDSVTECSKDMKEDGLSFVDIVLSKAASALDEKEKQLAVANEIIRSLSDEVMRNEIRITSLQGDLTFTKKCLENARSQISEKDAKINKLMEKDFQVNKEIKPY

| Variant | effect of a mutation on the interaction |
| --- | --- |
| D441G | decreasing interaction |
| P437A;F438A | decreasing interaction |

— IntAct's records for PubMed 14551211
